According to article PMC8724787 (2021):
Where a chain is given by its changes, count along the chain named. Names may count otherwise.

B1: K^L66A C10 mAb mutant (IgG1) (antibody, V domains shown)
VH: EVQLVESGAEVKKPGASVKVSCKASGYTFTSYAMHWVRQAPGQRLEWMGWINAGNGNTKYSQKFQDRVTITRDTSASTAYMELSSLRSEDTAIYYCARDKVDDYGDYWFPTLWYFDYWGQGTLVTVSS
VL: QSALTQPASVSGSPGQSITISCTGTSSDVGGFNYVSWFQQHPGKAPKLMLYDVTSRPSGVSSRFSGSASGNTASLTISGLQAEDEADYYCSSHTSRGTWVFGGGTKLTVL
B2: C10 monovalent antigen binding fragment (Fab) (Fab, V domains shown)
VH: B1 VH
VL: B1 VL with A68K
B3: C10 intact bivalent IgG1 (human monoclonal antibody EDE1 C10) (antibody, V domains shown)
VH: B1 VH
VL: B1 VL with A68K

Experiments:
[1] = molecular target: ZIKV-H/PF/2013 sE protein (aa 1-404) (Zika virus (strain H/PF/2013)); assay: BLI
[2] = molecular target: DENV2 strain 16681 envelope (E) protein on virions (Dengue virus 2 (strain 16681)); assay: ELISA; apparent
[3] = molecular target: ZIKV strain PF13 envelope (E) protein on virions (Zika virus (strain PF13), UniProt A0A024B7W1); assay: ELISA; apparent
[4] = molecular target: DENV3 strain H87 envelope (E) protein on virions (Dengue virus 3 (strain H87)); assay: ELISA; apparent
[5] = molecular target: DENV4 strain 1-0093 envelope (E) protein on virions (Dengue virus 4 (strain 1-0093)); assay: ELISA; apparent

Binder | Kd [1] | Kd [2] | Kd [3] | Kd [4] | Kd [5]
B1 | 40.3 nM |  |  |  | 
B2 |  | 38.8 nM | 1.16 nM | 165 nM | 29.2 nM
B3 | 16.2 nM |  | 0.41 nM | 2.03 nM | 1.42 nM
